Data set [1] concerns the target T1, GST-SOX10 HMG (mouse, UniProt Q04888 80-185). As to the kind of experiment: competition; unlabeled excess against labeled WT SOD3 probe; did not effectively compete; 10 mM HEPES pH 8.0, 5% glycerol, 50 mM NaCl, 5 mM MgCl2, 2 mM DTT, 0.1 mM EDTA, 4 ug BSA, 2 ug poly(dIdC) in 35 ul; 25 min at room temperature; 5% PAGE in 1x TBE. Particulars: protein: recombinant; tags: N-terminal GST (pGEX-4T-1); blunt.

The target in data set [2] is T1, GST-SOX10 HMG. As to the kind of experiment: EMSA; specific unlabeled probe abrogates the complex; 10 mM HEPES pH 8.0, 5% glycerol, 50 mM NaCl, 5 mM MgCl2, 2 mM DTT, 0.1 mM EDTA, 4 ug BSA, 2 ug poly(dIdC) in 35 ul; 25 min at room temperature; 5% PAGE in 1x TBE. Particulars: protein: recombinant; tags: N-terminal GST (pGEX-4T-1); label: 32P end label (probe); 3' overhang 4 nt on strand 1 as printed (20-mer/16-mer).

T1 sequence (Q04888 80-185): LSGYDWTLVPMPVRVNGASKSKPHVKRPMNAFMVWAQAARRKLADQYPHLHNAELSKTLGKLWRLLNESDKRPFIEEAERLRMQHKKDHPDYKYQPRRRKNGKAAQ

B1: SOD3 mutated probe (MT) (dsDNA)
DNA 1: GAAGAGGCAGACTGGTCTCT
DNA 2: AGAGACCAGTCTGCCTCTTC
Consider B1, for which, in the data set with GST-SOX10 HMG [1], the binding result is on record as “no binding”.

B2: SOD3 probe (WT) (dsDNA)
DNA 1: GAAGAGGCACAATGGTCTCT
DNA 2: ACCATTGTGCCTCTTC
For B2, in the data set with GST-SOX10 HMG [2], the binding result was “binds”.

The values above are taken from article PMC2556353, “Identification of direct regulatory targets of the transcription factor Sox10 based on function and conservation”.
